Reference: patent US20260167699A1 (Chugai, published 2026)
Changes are numbered by the printed parent chain.

T1: FcγRIIb (human, UniProt P31994 43-217)
T1 construct: extracellular domain; also called 2b
T1 sequence: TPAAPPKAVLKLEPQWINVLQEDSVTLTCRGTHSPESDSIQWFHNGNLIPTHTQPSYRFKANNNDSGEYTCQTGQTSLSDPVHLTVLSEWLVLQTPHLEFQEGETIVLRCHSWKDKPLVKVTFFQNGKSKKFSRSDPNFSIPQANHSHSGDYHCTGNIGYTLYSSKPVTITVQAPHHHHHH

T2: FcγRIIa(R) (human, UniProt P12318 34-217)
T2 construct: extracellular domain; also called FcγRIIa R type; 2aR
T2 sequence: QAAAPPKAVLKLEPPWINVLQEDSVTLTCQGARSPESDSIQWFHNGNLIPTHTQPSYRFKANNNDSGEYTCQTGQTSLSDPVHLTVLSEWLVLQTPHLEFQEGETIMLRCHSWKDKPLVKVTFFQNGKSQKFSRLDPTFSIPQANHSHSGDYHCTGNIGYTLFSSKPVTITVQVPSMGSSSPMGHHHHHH

T3: FcγRIIa(H) (human, UniProt P12318 34-217)
T3 construct: extracellular domain; also called FcγRIIa H type; 2aH
T3 sequence: T2 sequence with R134H

B1: GpH7-A5/GpH7-B3 variant H268_05P/GpL16-k0 (antibody, human IgG1, kappa)
heavy 1: not shown
heavy 2: not shown
light: DIVMTQSPLSLPVTPGEPASISCQASESLVHSNRNTYLHWYLQKPGQSPQLLIYKVSNRFSGVPDRFSGSGSGTDFTLKISRVEAEDVGVYYCSQNTHVPPTFGQGTKVEIERTVAAPSVFIFPPSDEQLKSGTASVVCLLNNFYPREAKVQWKVDNALQSGNSQESVTEQDSKDSTYSLSSTLTLSKADYEKHKVYACEVTHQGLSSPVTKSFNRGEC
notes: heterodimerized IgG1, one H chain mutated; also called He Ab
B2: GpH7-A5/GpH7-B3 variant E269_02A/GpL16-k0 (antibody, human IgG1, kappa)
heavy 1: not shown
heavy 2: not shown
light: B1 light
notes: as for B1
B3: GpH7-A5/GpH7-B3 variant H268_09D/GpL16-k0 (antibody, human IgG1, kappa)
heavy 1: not shown
heavy 2: not shown
light: B1 light
notes: as for B1
B4: GpH7-A5/GpH7-B3 variant L234_03V/GpL16-k0 (antibody, human IgG1, kappa)
heavy 1: not shown
heavy 2: not shown
light: B1 light
notes: as for B1
B5: GpH7-A5/GpH7-B3 variant H268_01G/GpL16-k0 (antibody, human IgG1, kappa)
heavy 1: not shown
heavy 2: not shown
light: B1 light
notes: as for B1
B6: GpH7-A5/GpH7-B3 variant H268_20W/GpL16-k0 (antibody, human IgG1, kappa)
heavy 1: not shown
heavy 2: not shown
light: B1 light
notes: as for B1
B7: GpH7-A5/GpH7-B3 variant H268_06M/GpL16-k0 (antibody, human IgG1, kappa)
heavy 1: not shown
heavy 2: not shown
light: B1 light
notes: as for B1
B8: GpH7-A5/GpH7-B3 variant H268_02A/GpL16-k0 (antibody, human IgG1, kappa)
heavy 1: not shown
heavy 2: not shown
light: B1 light
notes: as for B1
B9: GpH7-A5/GpH7-B3 variant L234_05P/GpL16-k0 (antibody, human IgG1, kappa)
heavy 1: not shown
heavy 2: not shown
light: B1 light
notes: as for B1
B10: GpH7-A5/GpH7-B3 variant H268_14T/GpL16-k0 (antibody, human IgG1, kappa)
heavy 1: not shown
heavy 2: not shown
light: B1 light
notes: as for B1
B11: GpH7-A5/GpH7-B3 variant E269_09D/GpL16-k0 (antibody, human IgG1, kappa)
heavy 1: not shown
heavy 2: not shown
light: B1 light
notes: as for B1
B12: GpH7-A5/GpH7-B3 variant H268_11K/GpL16-k0 (antibody, human IgG1, kappa)
heavy 1: not shown
heavy 2: not shown
light: B1 light
notes: as for B1
B13: GpH7-A5/GpH7-B3 variant D270_08L/GpL16-k0 (antibody, human IgG1, kappa)
heavy 1: not shown
heavy 2: not shown
light: B1 light
notes: as for B1
B14: GpH7-A5/GpH7-B3 variant H268_08L/GpL16-k0 (antibody, human IgG1, kappa)
heavy 1: not shown
heavy 2: not shown
light: B1 light
notes: as for B1
B15: GpH7-A5/GpH7-B3 variant E269_14T/GpL16-k0 (antibody, human IgG1, kappa)
heavy 1: not shown
heavy 2: not shown
light: B1 light
notes: as for B1
B16: GpH7-A5/GpH7-B3 variant E269_01G/GpL16-k0 (antibody, human IgG1, kappa)
heavy 1: not shown
heavy 2: not shown
light: B1 light
notes: as for B1
B17: GpH7-A5/GpH7-B3 variant L234_01G/GpL16-k0 (antibody, human IgG1, kappa)
heavy 1: not shown
heavy 2: not shown
light: B1 light
notes: as for B1
B18: GpH7-A5/GpH7-B3 variant L234_04F/GpL16-k0 (antibody, human IgG1, kappa)
heavy 1: not shown
heavy 2: not shown
light: B1 light
notes: as for B1
B19: GpH7-A5/GpH7-B3 variant G236_10E/GpL16-k0 (antibody, human IgG1, kappa)
heavy 1: not shown
heavy 2: not shown
light: B1 light
notes: as for B1
B20: GpH7-A5/GpH7-B3 variant H268_07I/GpL16-k0 (antibody, human IgG1, kappa)
heavy 1: not shown
heavy 2: not shown
light: B1 light
notes: as for B1
B21: GpH7-A5/GpH7-B3 variant H268_18N/GpL16-k0 (antibody, human IgG1, kappa)
heavy 1: not shown
heavy 2: not shown
light: B1 light
notes: as for B1
B22: GpH7-A5/GpH7-B3 variant H268_04F/GpL16-k0 (antibody, human IgG1, kappa)
heavy 1: not shown
heavy 2: not shown
light: B1 light
notes: as for B1
B23: GpH7-A5/GpH7-B3 variant E269_13S/GpL16-k0 (antibody, human IgG1, kappa)
heavy 1: not shown
heavy 2: not shown
light: B1 light
notes: as for B1
B24: GpH7-A5/GpH7-B3 variant H268_10E/GpL16-k0 (antibody, human IgG1, kappa)
heavy 1: not shown
heavy 2: not shown
light: B1 light
notes: as for B1
B25: GpH7-A5/GpH7-B3 variant D270_10E/GpL16-k0 (antibody, human IgG1, kappa)
heavy 1: not shown
heavy 2: not shown
light: B1 light
notes: as for B1
B26: GpH7-A5/GpH7-B3 variant H268_03V/GpL16-k0 (antibody, human IgG1, kappa)
heavy 1: not shown
heavy 2: not shown
light: B1 light
notes: as for B1
B27: GpH7-A5/GpH7-B3 variant G236_20W/GpL16-k0 (antibody, human IgG1, kappa)
heavy 1: not shown
heavy 2: not shown
light: B1 light
notes: as for B1
B28: GpH7-A5/GpH7-B3 variant L234_02A/GpL16-k0 (antibody, human IgG1, kappa)
heavy 1: not shown
heavy 2: not shown
light: B1 light
notes: as for B1
B29: GpH7-A5/GpH7-B3 variant G236_02A/GpL16-k0 (antibody, human IgG1, kappa)
heavy 1: not shown
heavy 2: not shown
light: B1 light
notes: as for B1
B30: GpH7-A5/GpH7-B3 variant H268_19Q/GpL16-k0 (antibody, human IgG1, kappa)
heavy 1: not shown
heavy 2: not shown
light: B1 light
notes: as for B1
B31: GpH7-A5/GpH7-B3 variant H268_13S/GpL16-k0 (antibody, human IgG1, kappa)
heavy 1: not shown
heavy 2: not shown
light: B1 light
notes: as for B1
B32: GpH7-A5/GpH7-B3 variant D270_14T/GpL16-k0 (antibody, human IgG1, kappa)
heavy 1: not shown
heavy 2: not shown
light: B1 light
notes: as for B1
B33: GpH7-A5/GpH7-B3 variant H268_15Y/GpL16-k0 (antibody, human IgG1, kappa)
heavy 1: not shown
heavy 2: not shown
light: B1 light
notes: as for B1
B34: GpH7-A5/GpH7-B3 variant G236_09D/GpL16-k0 (antibody, human IgG1, kappa)
heavy 1: not shown
heavy 2: not shown
light: B1 light
notes: as for B1
B35: GpH7-A5/GpH7-B3 variant H268_12R/GpL16-k0 (antibody, human IgG1, kappa)
heavy 1: not shown
heavy 2: not shown
light: B1 light
notes: as for B1

The binders below were run against T1, FcγRIIb (assay: SPR (Biacore), binding relative to GpH7-A5/GpH7-B3/GpL16-k0 x100;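 also: surface plasmon resonance at 25 °C, antibody captured on a sensor chip and soluble FcγR flowed over it in HBS-EP+ running buffer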).

| Binder | He/Con 2b [%] |
| --- | --- |
| B1 | 122 |
| B2 | 52.4 |
| B3 | 251 |
| B4 | 83.4 |
| B5 | 151 |
| B6 | 117 |
| B7 | 69 |
| B8 | 175 |
| B9 | 83.2 |
| B10 | 90.3 |
| B11 | 110 |
| B12 | 87.2 |
| B13 | 50.8 |
| B14 | 71.2 |
| B15 | 53.2 |
| B16 | 54.1 |
| B17 | 57.8 |
| B18 | 114 |

| Binder | He/Con 2b [%] |
| --- | --- |
| B19 | 115 |
| B20 | 93.4 |
| B21 | 164 |
| B22 | 94.2 |
| B23 | 50.2 |
| B24 | 242 |
| B25 | 72.5 |
| B26 | 120 |
| B27 | 60.7 |
| B28 | 74.1 |
| B29 | 101 |
| B30 | 140 |
| B31 | 168 |
| B32 | 54.8 |
| B33 | 112 |
| B34 | 174 |
| B35 | 94.3 |

What follows are binders tested against T4, FcγRIa (human, UniProt P12314 16-292) in the same assay as above.
T4 construct: extracellular domain; also called 1a
T4 sequence (P12314 other isoform, or with tags, fused parts or gaps): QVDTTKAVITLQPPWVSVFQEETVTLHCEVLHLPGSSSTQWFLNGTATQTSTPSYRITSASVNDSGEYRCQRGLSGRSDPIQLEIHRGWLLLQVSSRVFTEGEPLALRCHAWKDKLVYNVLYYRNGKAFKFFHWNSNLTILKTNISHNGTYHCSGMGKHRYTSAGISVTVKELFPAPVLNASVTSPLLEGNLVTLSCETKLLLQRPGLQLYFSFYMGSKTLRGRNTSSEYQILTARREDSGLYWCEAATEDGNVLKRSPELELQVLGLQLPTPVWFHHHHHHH

| Binder | He/Con 1a [%] |
| --- | --- |
| B1 | 106 |
| B2 | 101 |
| B3 | 106 |
| B4 | 108 |
| B5 | 104 |
| B6 | 103 |
| B7 | 101 |
| B8 | 105 |
| B9 | 103 |
| B10 | 108 |
| B11 | 103 |
| B12 | 102 |
| B13 | 93.2 |
| B14 | 104 |
| B15 | 102 |
| B16 | 101 |
| B17 | 99.2 |
| B18 | 104 |

| Binder | He/Con 1a [%] |
| --- | --- |
| B19 | 92.6 |
| B20 | 104 |
| B21 | 104 |
| B22 | 103 |
| B23 | 99.8 |
| B24 | 107 |
| B25 | 104 |
| B26 | 103 |
| B27 | 104 |
| B28 | 101 |
| B29 | 99.1 |
| B30 | 104 |
| B31 | 106 |
| B32 | 89.5 |
| B33 | 104 |
| B34 | 95.5 |
| B35 | 103 |

What follows are binders tested against T2, FcγRIIa(R) in the same assay as above.

| Binder | He/Con 2aR [%] |
| --- | --- |
| B1 | 114 |
| B2 | 70.2 |
| B3 | 161 |
| B4 | 99 |
| B5 | 134 |
| B6 | 122 |
| B7 | 67.2 |
| B8 | 143 |
| B9 | 104 |
| B10 | 100 |
| B11 | 113 |
| B12 | 108 |
| B13 | 62.8 |
| B14 | 91.4 |
| B15 | 71 |
| B16 | 70.3 |
| B17 | 72.4 |
| B18 | 121 |

| Binder | He/Con 2aR [%] |
| --- | --- |
| B19 | 124 |
| B20 | 102 |
| B21 | 138 |
| B22 | 105 |
| B23 | 65.8 |
| B24 | 159 |
| B25 | 85.7 |
| B26 | 117 |
| B27 | 77.3 |
| B28 | 92.5 |
| B29 | 145 |
| B30 | 128 |
| B31 | 137 |
| B32 | 72.2 |
| B33 | 118 |
| B34 | 105 |
| B35 | 113 |

These binders were tested against T3, FcγRIIa(H) in the same assay as above.

| Binder | He/Con 2aH [%] |
| --- | --- |
| B1 | 82.7 |
| B2 | 78.7 |
| B3 | 134 |
| B4 | 94.4 |
| B5 | 100 |
| B6 | 96.9 |
| B7 | 85.8 |
| B8 | 115 |
| B9 | 104 |
| B10 | 93.5 |
| B11 | 105 |
| B12 | 89.8 |
| B13 | 81.8 |
| B14 | 85.9 |
| B15 | 70.3 |
| B16 | 72.3 |
| B17 | 84.1 |
| B18 | 133 |

| Binder | He/Con 2aH [%] |
| --- | --- |
| B19 | 116 |
| B20 | 91.2 |
| B21 | 113 |
| B22 | 112 |
| B23 | 70.7 |
| B24 | 126 |
| B25 | 111 |
| B26 | 100 |
| B27 | 153 |
| B28 | 90.1 |
| B29 | 145 |
| B30 | 104 |
| B31 | 114 |
| B32 | 81.3 |
| B33 | 113 |
| B34 | 93.5 |
| B35 | 90.9 |
